Here are results for 7 substances from paper PMC6937306.

The target in test [1] is RAGE C2 domain (human). In words: SEC-MALS; Superdex 200 Increase 10/300, 25 mM Tris-Cl, 0.2 M NaCl, pH 8.0, room temperature, no detergent; C2 fractions re-chromatographed separately. Background: Size exclusion chromatography separates by hydrodynamic size, large species first.
The target in test [2] is RAGE C2 domain (human). In words: native MS; about 10 uM protein; 100 mM ammonium acetate for V_C1 and C2, 500 mM for V_C1_C2; nano-ESI.
Test [3] concerns the target RAGE C2 domain (human). Kind of test: AUC; sedimentation velocity, 20 C, 40,000 rpm, 25 mM Tris pH 7.5, 200 mM NaCl, absorbance 280 nm; c(s) distribution (bimodal f/f0 for C2).
The target of test [4] is RAGE C2 domain (human). In words: ESI-MS under denaturing conditions; 50% acetonitrile and 0.1% formic acid added to the protein sample.
For test [5], the target named is RAGE C2_TM_CT (C2 domain, transmembrane region and cytoplasmic tail) (human). Kind of test: SEC-MALS; Superdex 200 Increase 10/300, 25 mM Tris-Cl, 0.2 M NaCl, pH 8.0, with 2x CMC DDM, room temperature; 'protein conjugate' analysis (ASTRA) of protein and detergent masses.
Test [6] shares this target. In words: ESI-MS under denaturing conditions; 50% acetonitrile and 0.1% formic acid added to the protein sample.
Test [7] deals with RAGE C2_TM_CT Mutant 1 (four glycines in the region of the GxxxG motif mutated to alanine) (human). In words: SEC-MALS; Superdex 200 Increase 10/300, 25 mM Tris-Cl, 0.2 M NaCl, pH 8.0, with 2x CMC DDM, room temperature; 'protein conjugate' analysis (ASTRA) of protein and detergent masses.
Test [8] deals with RAGE C2_TM_CT Mutant 2 (six amino acids that cover the GxxxG motif deleted) (human). The test is described as above.
The target of test [9] is RAGE V_C1 (V and C1 domains) (human). Kind of test: native MS; about 10 uM protein; 100 mM ammonium acetate for V_C1 and C2, 500 mM for V_C1_C2; nano-ESI.
Test [10] addresses RAGE V_C1_C2 (extracellular part of RAGE) (human). The description is as above.
Test [11] shares this target. In words: AUC; sedimentation velocity, 20 C, 40,000 rpm, 25 mM Tris pH 7.5, 200 mM NaCl, absorbance 280 nm; c(s) distribution (bimodal f/f0 for C2).
Test [12] concerns the target full-length RAGE (receptor for advanced glycation end-products) (human) (UniProt Q15109). Kind of test: AUC; sedimentation velocity, 20 C, 42,000 rpm, 25 mM Tris pH 7.5, 200 mM NaCl with DDM; absorbance 280 nm and interference; f/fo analysis with the GUSSI Membrane Protein module for FL_RAGE.
Test [13] has the same target. Kind of test: native MS; FL_RAGE about 10 uM in 600 mM ammonium acetate with 0.04% (2x CMC) Triton X-100; nano-ESI, collisional release from the micelle.

Broadly, the stoichiometry N is a count of units in the complex or per binding partner.

“And” between values parts separate entries of the source, which are not always exact repeats. Equal entries are not always repeated. Some results are limits rather than exact numbers.

For the substance RAGE C2 domain (domain or fragment), the stoichiometry N in the test with RAGE C2 domain (human) [1] amounted to 2. In the test with RAGE C2 domain (human) [2], this substance showed a fraction of dimeric signals of 33% and a stoichiometry N of 2. In the test with RAGE C2 domain (human) [3], this substance displayed a percent of the total signal in the dimer of over 65% and a stoichiometry N of 2. Besides, in the test with RAGE C2 domain (human) [4], the fraction of dimeric peaks under denaturing conditions is 27% and the stoichiometry N was found to be 2.

In the case of “RAGE C2_TM_CT (C2 domain, transmembrane region and cytoplasmic tail) (domain or fragment)”, the stoichiometry N in [5] is 2; in test [6], 2 and 4 and 6.

On to “RAGE C2_TM_CT Mutant 1 (four glycines in the region of the GxxxG motif mutated to alanine) (domain or fragment)”, for which, in test [7], the stoichiometry N is 2 and 3.

Regarding “RAGE C2_TM_CT Mutant 2 (six amino acids that cover the GxxxG motif deleted) (domain or fragment)”, the stoichiometry N in [8] turned out to be 2.

For “RAGE V_C1 (V and C1 domains) (domain or fragment)”, in test [9], the fraction of dimeric signals is 12% and the stoichiometry N was 2.

For the substance “RAGE V_C1_C2 (extracellular part of RAGE) (domain or fragment)”, in test [10], the fraction of dimers came out at 11% and the stoichiometry N came to 2. Further, in test [11], the percent of the signal in the dimer peak is 17% and the stoichiometry N is 2.

On to “full-length RAGE (receptor for advanced glycation end-products) (from UniProt Q15109 23-404)”, for which the stoichiometry N was 2 and 3 in test [12]; 2 and 3 and 4 in [13].
